Experimental data reported in patent publication US20260115256A1 (HANGZHOU SCIWIND BIOSCIENCES, published 2026).
Blank lines part the entries; values can stand above or below the binder they belong to. *1 amine or outer side, *2 acyl side, *3 side chain or, on linkers, in order; H or OH if unused. Bridges are numbered along the chain shown (N, C = ends). Where no end group is shown, it is not given here. Side-chain parts run from the residue outwards. [ ]: non-standard residue; d: D form. The star is where a group is joined. C20 diacid = O=C(O)CCCCCCCCCCCCCCCCCCC(=O)*; C18 diacid = O=C(O)CCCCCCCCCCCCCCCCC(=O)*; γGlu = O=C(O)[C@H](CCC(=O)[*:2])N[*:1]; Hyp = O=C(O)[C@@H]1C[C@@H](O)CN1; AEEA = NCCOCCOCC(=O)O

Biological target: T1, human amylin receptor (AMY3) on CHO-K1/Ga15/AMY3 cells (human, UniProt P30988 25-474; O60896 24-148)
T1 sequence (looked up) 1: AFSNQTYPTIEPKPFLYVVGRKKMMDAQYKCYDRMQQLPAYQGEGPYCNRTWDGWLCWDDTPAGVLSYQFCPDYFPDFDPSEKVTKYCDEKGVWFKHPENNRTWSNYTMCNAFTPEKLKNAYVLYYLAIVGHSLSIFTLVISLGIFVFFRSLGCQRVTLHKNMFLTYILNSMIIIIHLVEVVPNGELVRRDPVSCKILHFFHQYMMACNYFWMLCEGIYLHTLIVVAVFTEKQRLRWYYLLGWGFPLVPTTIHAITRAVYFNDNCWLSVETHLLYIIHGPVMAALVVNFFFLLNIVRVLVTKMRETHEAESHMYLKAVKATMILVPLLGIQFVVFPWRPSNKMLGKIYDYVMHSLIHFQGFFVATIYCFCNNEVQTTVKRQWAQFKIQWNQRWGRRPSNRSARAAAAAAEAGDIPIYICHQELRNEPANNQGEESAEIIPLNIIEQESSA
T1 sequence (looked up) 2: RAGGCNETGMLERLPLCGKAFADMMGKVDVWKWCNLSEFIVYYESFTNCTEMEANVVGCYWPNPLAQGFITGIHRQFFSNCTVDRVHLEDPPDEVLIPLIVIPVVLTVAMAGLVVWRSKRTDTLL
Assay: cell-based or functional assay

Binder: {C20 diacid-γGlu}-KCNTATCATQRLADFLRHSSNNLHPILPPTNVGSNT[Hyp]-NH2 (disulfide 2-7 (inferred)) [PD159]
- EC50, CRE-luciferase assay: 0.037 nM

Binder: RCNTATCATQRLADFLRHSSNNLK([γGlu-C18 diacid])PILPPTNVGSNT[Hyp]-NH2 (disulfide 2-7 (inferred)) [PD107]
- EC50, CRE-luciferase assay: 0.027 nM

Binder: RCNTATCATQRLADFLRHK([AEEA-γGlu-C18 diacid])SNNLGPILPPTNVGSNT[Hyp]-NH2 (disulfide 2-7 (inferred)) [PD119]
- EC50, CRE-luciferase assay: 0.024 nM

Binder: RCNTATCATQRLAEFLRHSSNNLK([γGlu-C20 diacid])PILPPTNVGSNTP-NH2 (disulfide 2-7 (inferred)) [PD009]
- EC50, CRE-luciferase assay: 0.067 nM

B1: PD122 (peptide)
peptide: {C20 diacid-γGlu-AEEA}-KCNTATCATQRLADFLRHSSNNLGPILPPTNVGSNT[Hyp]-NH2
modifications: disulfide 2-7 (inferred); not fully specified; printed as KCNTATCATQRLADFLRHSSNNLGPILPPTNVGSNT-trans-Hyp-NH2
- EC50, CRE-luciferase assay: 0.048 nM

Binder: {C18 diacid-γGlu-AEEA}-KCNTATCATQRLADFLRHSSNNLGPILPPTNVGSNT[Hyp]-NH2 (disulfide 2-7 (inferred)) [PD125]
- EC50, CRE-luciferase assay: 0.01 nM

Binder: RCNTATCATQRLADFLRHSSNNK([AEEA-γGlu-C20 diacid])GPILPPTNVGSNT[Hyp]-NH2 (disulfide 2-7 (inferred)) [PD110]
- EC50, CRE-luciferase assay: 0.039 nM

Binder: RCNTATCATQRLADFLRHSSNK([AEEA-γGlu-C18 diacid])LGPILPPTNVGSNT[Hyp]-NH2 (disulfide 2-7 (inferred)) [PD113]
- EC50, CRE-luciferase assay: 0.017 nM

Binder: {C20 diacid-γGlu}-KCNTATCATQRLANFLVHSSNNFGPILPPTNVGSNTY-NH2 (ends and bridges not checked) [PD156]
- EC50, CRE-luciferase assay: 0.029 nM

Binder: RCNTATCATQRLAEFLRHSSNNLK([γGlu-C20 diacid])PILPPTNVGSNTY-NH2 (disulfide 2-7 (inferred)) [PD017]
- EC50, CRE-luciferase assay: 0.772 nM

Binder: RCNTATCATQRLADFLRHSSK([AEEA-γGlu-C20 diacid])NLGPILPPTNVGSNT[Hyp]-NH2 (disulfide 2-7 (inferred)) [PD114]
- EC50, CRE-luciferase assay: 0.029 nM

B3: PD123 (peptide)
peptide: {C20 diacid-γGlu-AEEA-AEEA}-KCNTATCATQRLADFLRHSSNNLGPILPPTNVGSNT[Hyp]-NH2
modifications: disulfide 2-7 (inferred); not fully specified; printed as KCNTATCATQRLADFLRHSSNNLGPILPPTNVGSNT-trans-Hyp-NH2
- EC50, CRE-luciferase assay: 0.068 nM

Binder: RCNTATCATQRLADFLRHSSNNLK([AEEA-γGlu-C18 diacid])PILPPTNVGSNT[Hyp]-NH2 (disulfide 2-7 (inferred)) [PD108]
- EC50, CRE-luciferase assay: 0.028 nM

Binder: RCNTATCATQRLADFLRHSSNNK([AEEA-γGlu-C18 diacid])GPILPPTNVGSNT[Hyp]-NH2 (disulfide 2-7 (inferred)) [PD111]
- EC50, CRE-luciferase assay: 0.008 nM

Binder: RCNTATCATQRLADFLRHSSNNLK([AEEA-AEEA-γGlu-C18 diacid])PILPPTNVGSNT[Hyp]-NH2 (disulfide 2-7 (inferred)) [PD109]
- EC50, CRE-luciferase assay: 0.01 nM

Continued, values first:

- EC50, CRE-luciferase assay: 0.023 nM
Binder: RCNTATCATQRLADFLRHSSNNLGK([AEEA-γGlu-C20 diacid])ILPPTNVGSNT[Hyp]-NH2 (disulfide 2-7 (inferred)) [PD120]

- EC50, CRE-luciferase assay: 0.022 nM
Binder: {C20 diacid-γGlu}-KCNTATCATQRLADFLRHSSNNLRPILPPTNVGSNT[Hyp]-NH2 (disulfide 2-7 (inferred)) [PD158]

- EC50, CRE-luciferase assay: 0.028 nM
Binder: {C18 diacid-γGlu-AEEA-AEEA}-KCNTATCATQRLADFLRHSSNNLGPILPPTNVGSNT[Hyp]-NH2 (disulfide 2-7 (inferred)) [PD126]

- EC50, CRE-luciferase assay: 0.033 nM
Binder: RCNTATCATQRLADFLRHSK([AEEA-γGlu-C20 diacid])NNLGPILPPTNVGSNT[Hyp]-NH2 (disulfide 2-7 (inferred)) [PD116]

- EC50, CRE-luciferase assay: 0.018 nM
Binder: RCNTATCATQRLADFLRHSSNNLGK([AEEA-γGlu-C18 diacid])ILPPTNVGSNT[Hyp]-NH2 (disulfide 2-7 (inferred)) [PD121]

- EC50, CRE-luciferase assay: 0.03 nM
Binder: RCNTATCATQRLADFLRHSSNK([AEEA-γGlu-C20 diacid])LGPILPPTNVGSNT[Hyp]-NH2 (disulfide 2-7 (inferred)) [PD112]

- EC50, CRE-luciferase assay: 0.014 nM
Binder: RCNTATCATQRLADFLRHSK([AEEA-γGlu-C18 diacid])NNLGPILPPTNVGSNT[Hyp]-NH2 (disulfide 2-7 (inferred)) [PD117]

- EC50, CRE-luciferase assay: 0.008 nM
B2: PD124 (peptide)
peptide: {C18 diacid-γGlu}-KCNTATCATQRLADFLRHSSNNLGPILPPTNVGSNT[Hyp]-NH2
modifications: disulfide 2-7 (inferred); not fully specified; printed as KCNTATCATQRLADFLRHSSNNLGPILPPTNVGSNT-trans-Hyp-NH2

- EC50, CRE-luciferase assay: 0.032 nM
Binder: RCNTATCATQRLADFLRHK([AEEA-γGlu-C20 diacid])SNNLGPILPPTNVGSNT[Hyp]-NH2 (disulfide 2-7 (inferred)) [PD118]

- EC50, CRE-luciferase assay: 0.011 nM
Binder: RCNTATCATQRLADFLRHSSK([AEEA-γGlu-C18 diacid])NLGPILPPTNVGSNT[Hyp]-NH2 (disulfide 2-7 (inferred)) [PD115]
